Laboratory results from patent US20220177580A1 (Amgen, published 2022).

Assays:
[1] = target: T1, huFcγRIIa-131H (His-tagged, soluble, captured for SPR) (human, UniProt P12318 34-217, limits assumed); experiment: SPR, His-tagged FcγR captured by anti-His antibody, antibody injected; unenriched panitumumab; apparent KD
T1 construct: His-tagged human FcγR expressed in CHO cells, purified in house and captured by an anti-His antibody on a CM5 chip; also called FcγRIIa-H131; not shown: His tag
T1 sequence (looked up): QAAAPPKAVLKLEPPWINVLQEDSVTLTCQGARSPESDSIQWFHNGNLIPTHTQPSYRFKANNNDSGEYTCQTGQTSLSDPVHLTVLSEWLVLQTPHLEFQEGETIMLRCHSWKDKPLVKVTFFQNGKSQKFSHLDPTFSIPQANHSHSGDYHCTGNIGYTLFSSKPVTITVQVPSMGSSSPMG
Protocol: (§1) Surface plasmon resonance experiments were performed using the SPR T-200 instrument. His-tagged human FcγRs were expressed in CHO cells and purified in house mouse anti-his capture antibody was immobilized at approximately 5000 RU on a Series S Sensor Chip CM5 (GE Healthcare) using Instrument Buffer (0.005% P20 in PBS). FcγRs were diluted to 3.3˜10 nM in running buffer (0.005% P20, 0.1 mg/mL BSA in PBS) and injected at 10 μL/min for 1.5 min for the capture step. Panitumumab samples were diluted in running buffer (PBS+0.005% P20+0.1 mg/mL BSA) over a range of concentrations from 0.4 nM-20000 nM and injected over the captured FcγR with association and dissociation times of 3 minutes at 50 μL/min. The chip surface was regenerated by injecting 10 mM glycine, pH 1.7 at 30 μL/min for 30 s.

[2] = target: T2, human FcγRI (His-tagged, soluble, captured for SPR) (human, UniProt P12314 16-292, limits assumed); experiment: SPR, His-tagged FcγR captured by anti-His antibody, antibody injected
T2 construct: His-tagged human FcγR expressed in CHO cells, purified in house and captured by an anti-His antibody on a CM5 chip; also called CD64; not shown: His tag
T2 sequence (P12314 16-292 limits assumed): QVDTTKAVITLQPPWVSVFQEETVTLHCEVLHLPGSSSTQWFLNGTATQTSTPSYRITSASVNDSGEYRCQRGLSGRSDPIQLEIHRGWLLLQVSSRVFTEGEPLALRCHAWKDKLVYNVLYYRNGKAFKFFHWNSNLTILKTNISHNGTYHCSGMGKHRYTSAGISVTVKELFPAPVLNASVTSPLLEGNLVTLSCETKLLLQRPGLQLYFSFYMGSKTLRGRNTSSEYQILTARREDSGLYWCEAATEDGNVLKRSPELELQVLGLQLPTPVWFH
Protocol: as §1

[3] = target: T1, huFcγRIIa-131H (His-tagged, soluble, …); experiment: SPR equilibrium binding, His-tagged FcγR captured by anti-His antibody; afucose enriched; equilibrium binding
Protocol: as §1
(§2) To try to assess the affinity of panitumumab and the various enriched glycan species for FcγRs, we measured the biding of panitumumab samples to all three human Fcγ Receptors by surface plasmon resonance (SPR). […] The binding was further assessed for the fucose and afucose enriched panitumumab samples by equilibrium binding (FIGS. 11A-11B). […]

[4] = target: T1, huFcγRIIa-131H (His-tagged, soluble, …); experiment: SPR equilibrium binding, His-tagged FcγR captured by anti-His antibody; fucose enriched; equilibrium binding
Protocol: as §1, §2

B1: Panitumumab (antibody, human IgG2, kappa)
heavy: QVQLQESGPGLVKPSETLSLTCTVSGGSVSSGDYYWTWIRQSPGKGLEWIGHIYYSGNTNYNPSLKSRLTISIDTSKTQFSLKLSSVTAADTAIYYCVRDRVTGAFDIWGQGTMVTVSSASTKGPSVFPLAPCSRSTSESTAALGCLVKDYFPEPVTVSWNSGALTSGVHTFPAVLQSSGLYSLSSVVTVPSSNFGTQTYTCNVDHKPSNTKVDKTVERKCCVECPPCPAPPVAGPSVFLFPPKPKDTLMISRTPEVTCVVVDVSHEDPEVQFNWYVDGVEVHNAKTKPREEQFNSTFRVVSVLTVVHQDWLNGKEYKCKVSNKGLPAPIEKTISKTKGQPREPQVYTLPPSREEMTKNQVSLTCLVKGFYPSDIAVEWESNGQPENNYKTTPPMLDSDGSFFLYSKLTVDKSRWQQGNVFSCSVMHEALHNHYTQKSLSLSPGK
light: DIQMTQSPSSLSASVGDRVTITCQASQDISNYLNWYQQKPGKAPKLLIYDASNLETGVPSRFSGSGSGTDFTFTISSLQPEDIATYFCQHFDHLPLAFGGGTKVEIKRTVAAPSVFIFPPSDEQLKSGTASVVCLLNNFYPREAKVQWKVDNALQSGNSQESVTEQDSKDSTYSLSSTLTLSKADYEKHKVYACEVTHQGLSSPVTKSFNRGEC
modifications: N-linked glycan at N-297 (Kabat EU numbering; residue 295 of SEQ ID NO:1)
notes: Human IgG2 anti-EGFR monoclonal antibody produced in CHO cells at Amgen; unfractionated glycan profile; also called Vectibix; IgG2 (Panitumumab)
[1]
  Kd: ~20 µM
[2]
  binding result: no binding (tested: 10 µM)

B2: afucose enriched panitumumab (antibody, human IgG2, kappa)
heavy: QVQLQESGPGLVKPSETLSLTCTVSGGSVSSGDYYWTWIRQSPGKGLEWIGHIYYSGNTNYNPSLKSRLTISIDTSKTQFSLKLSSVTAADTAIYYCVRDRVTGAFDIWGQGTMVTVSSASTKGPSVFPLAPCSRSTSESTAALGCLVKDYFPEPVTVSWNSGALTSGVHTFPAVLQSSGLYSLSSVVTVPSSNFGTQTYTCNVDHKPSNTKVDKTVERKCCVECPPCPAPPVAGPSVFLFPPKPKDTLMISRTPEVTCVVVDVSHEDPEVQFNWYVDGVEVHNAKTKPREEQFNSTFRVVSVLTVVHQDWLNGKEYKCKVSNKGLPAPIEKTISKTKGQPREPQVYTLPPSREEMTKNQVSLTCLVKGFYPSDIAVEWESNGQPENNYKTTPPMLDSDGSFFLYSKLTVDKSRWQQGNVFSCSVMHEALHNHYTQKSLSLSPGK
light: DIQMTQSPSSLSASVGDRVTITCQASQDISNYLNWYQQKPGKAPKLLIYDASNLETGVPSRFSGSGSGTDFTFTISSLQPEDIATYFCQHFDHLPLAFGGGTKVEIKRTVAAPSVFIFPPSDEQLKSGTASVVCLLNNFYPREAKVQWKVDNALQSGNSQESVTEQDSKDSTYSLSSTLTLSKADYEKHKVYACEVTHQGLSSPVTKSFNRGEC
modifications: N-297 glycan (residue 295 of SEQ ID NO:1) enriched for afucosylated species (Endo-H treatment, eluate of FcγIIIa affinity column; terminal galactose removed with β-(1-4)-galactosidase)
notes: also called afucosylated panitumumab; afucose enriched (eluate) mAb
[3]
  Kd: ~8 µM

B3: fucose enriched panitumumab (antibody, human IgG2, kappa)
heavy: QVQLQESGPGLVKPSETLSLTCTVSGGSVSSGDYYWTWIRQSPGKGLEWIGHIYYSGNTNYNPSLKSRLTISIDTSKTQFSLKLSSVTAADTAIYYCVRDRVTGAFDIWGQGTMVTVSSASTKGPSVFPLAPCSRSTSESTAALGCLVKDYFPEPVTVSWNSGALTSGVHTFPAVLQSSGLYSLSSVVTVPSSNFGTQTYTCNVDHKPSNTKVDKTVERKCCVECPPCPAPPVAGPSVFLFPPKPKDTLMISRTPEVTCVVVDVSHEDPEVQFNWYVDGVEVHNAKTKPREEQFNSTFRVVSVLTVVHQDWLNGKEYKCKVSNKGLPAPIEKTISKTKGQPREPQVYTLPPSREEMTKNQVSLTCLVKGFYPSDIAVEWESNGQPENNYKTTPPMLDSDGSFFLYSKLTVDKSRWQQGNVFSCSVMHEALHNHYTQKSLSLSPGK
light: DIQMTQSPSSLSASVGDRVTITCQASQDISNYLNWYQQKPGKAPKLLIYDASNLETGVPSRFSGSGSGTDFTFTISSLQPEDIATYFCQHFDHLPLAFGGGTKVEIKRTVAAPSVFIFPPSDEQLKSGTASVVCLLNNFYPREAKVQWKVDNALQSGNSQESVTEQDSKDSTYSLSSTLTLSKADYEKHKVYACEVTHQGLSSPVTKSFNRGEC
modifications: N-297 glycan (residue 295 of SEQ ID NO:1) enriched for fucosylated species (flow-through of FcγIIIa affinity column; terminal galactose removed with β-(1-4)-galactosidase)
notes: also called fucosylated panitumumab; afucose-depleted (flow-through) mAb
[4]
  Kd: ~7.9 µM
